Laboratory results taken from patent US20030088057.

Tests used:
myelin basic protein = myelin basic protein (UniProt P02687)
rat prolactin = rat prolactin (UniProt P01237)
histone 4 = histone 4 (UniProt P62803)
histone 2B = histone 2B (UniProt P62808)

Chain of rat prolactin (P01237 30-226): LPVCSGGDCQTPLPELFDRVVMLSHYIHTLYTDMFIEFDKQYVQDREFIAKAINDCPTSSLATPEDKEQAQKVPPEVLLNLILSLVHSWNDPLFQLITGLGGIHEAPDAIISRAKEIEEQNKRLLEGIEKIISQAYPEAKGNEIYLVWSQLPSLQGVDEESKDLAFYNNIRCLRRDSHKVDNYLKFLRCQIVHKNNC
Chain of myelin basic protein (P02687 whole entry): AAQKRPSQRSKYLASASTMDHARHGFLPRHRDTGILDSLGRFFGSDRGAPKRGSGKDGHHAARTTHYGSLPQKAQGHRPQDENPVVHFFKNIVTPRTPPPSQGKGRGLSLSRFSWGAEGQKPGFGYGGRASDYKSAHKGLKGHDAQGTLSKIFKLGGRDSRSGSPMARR

In the case of “active γ-PAK (mode of activation not stated for this experiment)”, the 32P incorporated (ARKASAA) was 0.9 pmol/unit, the 32P incorporated, % (AKRASAA = 100) (ARKASAA) was 3% and the Km (ARKASAA) was > 5000 µM. The substrate or not (rac1) was “Proteins that are not substrates for γ-PAK, such as casein, histone 1, cdc42, and rac1 (data not shown)”, the Km (AKAASAA) was > 5000 µM and the 32P incorporated (myelin basic protein) was 4.2 pmol. It also gave a rel rate (%) (histone 2B = 100) (myelin basic protein) of 37%, a 32P incorporated (PKRASAA) of 40.5 pmol/unit and a 32P incorporated, % (AKRASAA = 100) (PKRASAA) of 151%. For the same substance, the Km (PKRASAA) was 240 µM, the “Km relative to AKRASAA” value (PKRASAA) was “decreased the Km by ≈2-fold as compared to AKRASAA” and the Vmax (PKRASAA) was 1.1 pmol/min. For the same substance, the Vmax/Km (pmol min^-1 mM^-1) (PKRASAA) was 4.6, the “phosphorylation rate (Vmax/Km) relative to AKRASAA” value (PKRASAA) was “an overall effect of a 2-fold increase in the phosphorylation rate” and the 32P incorporated (ARRASAA) was 25 pmol/unit. It also gave a 32P incorporated, % (AKRASAA = 100) (ARRASAA) of 93%, a Km (ARRASAA) of 650 µM and a Vmax (ARRASAA) of 2.11 pmol/min. The Vmax/Km (pmol min^-1 mM^-1) (ARRASAA) was 3.2, the Km (AKRGSAA) was 3520 µM and the “Km relative to AKRASAA” value (AKRGSAA) was “increased the Km by 7-fold over that of the peptide containing alanine at that position”. For the same substance, the Vmax (AKRGSAA) was 6.44 pmol/min, the “Vmax relative to AKRASAA” value (AKRGSAA) was “the Vmax was increased by 6-fold” and the Vmax/Km (pmol min^-1 mM^-1) (AKRGSAA) was 1.8. It also gave a 32P incorporated (protamine) of 0 pmol, a rel rate (%) (histone 2B = 100) (protamine) of 0% and a 32P incorporated (RKKKSAA) of 0.1 pmol/unit. It also gave a 32P incorporated, % (AKRASAA = 100) (RKKKSAA) of 0%, a 32P incorporated (KKRKSAA) of 19.2 pmol/unit and a 32P incorporated, % (AKRASAA = 100) (KKRKSAA) of 72%. The Km (KKRKSAA) was 610 µM, the Vmax (KKRKSAA) was 1.84 pmol/min and the Vmax/Km (pmol min^-1 mM^-1) (KKRKSAA) was 3. The 32P incorporated (rat prolactin) was 1.8 pmol, the rel rate (%) (histone 2B = 100) (rat prolactin) was 17% and the “rate of phosphorylation (reference)” value (ARRASVA) was “ARRASVA (SEQ ID NO:17) (100%)”. The Km (AKRASPA) was > 5000 µM, the 32P incorporated (AKRPSAA) was 1.2 pmol/unit and the 32P incorporated, % (AKRASAA = 100) (AKRPSAA) was 5%. For the same substance, the Km (AKRPSAA) was > 5000 µM, the 32P incorporated (AKRASAA) was 26.8 pmol/unit and the 32P incorporated, % (AKRASAA = 100) (AKRASAA) was 100%. The Km (AKRASAA) was 460 µM, the Vmax/Km (pmol min^-1 mM^-1) (AKRASAA) was 2.2 and the “rate of phosphorylation relative to ARRASVA” value (ARAASVA) was “phosphorylated at a slower rate (40%) compared to ARRASVA (SEQ ID NO:17) (100%)”. For the same substance, the 32P incorporated (histone 4) was 8.3 pmol, the rel rate (%) (histone 2B = 100) (histone 4) was 74% and the Km (KKRASAA) was 370 µM. For the same substance, the Vmax (KKRASAA) was 1.59 pmol/min, the Vmax/Km (pmol min^-1 mM^-1) (KKRASAA) was 4.3 and the “Vmax/Km relative to AKRASAA” value (KKRASAA) was “˜2 fold higher than that of AKRASAA”. For the same substance, the 32P incorporated (histone 2B) was 11 pmol, the rel rate (%) (histone 2B = 100) (histone 2B) was 100% and the substrate or not (cdc42) was “Proteins that are not substrates for γ-PAK, such as casein, histone 1, cdc42, and rac1 (data not shown)”. The substrate or not (casein) was “Proteins that are not substrates for γ-PAK, such as casein, histone 1, cdc42, and rac1 (data not shown)”, the Km (AKRKSAA) was 480 µM and the Vmax (AKRKSAA) was 2.34 pmol/min. The Vmax/Km (pmol min^-1 mM^-1) (AKRKSAA) was 4.8, the “Vmax/Km relative to AKRASAA” value (AKRKSAA) was “˜2 fold higher than that of AKRASAA” and the 32P incorporated (AKRESAA) was 47.2 pmol/unit. The 32P incorporated, % (AKRASAA = 100) (AKRESAA) was 176%, the Km (AKRESAA) was 1350 µM and the “Km relative to AKRASAA” value (AKRESAA) was “Glutamate in the -1 or +1 position increased the Km by ˜3-fold”. For the same substance, the Vmax (AKRESAA) was 6.62 pmol/min, the “Vmax relative to AKRASAA” value (AKRESAA) was 6-fold higher than with AKRASAA and the Vmax/Km (pmol min^-1 mM^-1) (AKRESAA) was 4.9. The “Vmax/Km relative to AKRASAA” value (AKRESAA) was “an increase in the overall rate (Vmax/Km) of ˜2.2-fold”, the 32P incorporated (histone 1) was 0 pmol and the rel rate (%) (histone 2B = 100) (histone 1) was 0%. For the same substance, the 32P incorporated (AAAASKR) was 0 pmol/unit, the 32P incorporated, % (AKRASAA = 100) (AAAASKR) was 0% and the Km (AARASAA) was 1880 µM. The Vmax (AARASAA) was 2.27 pmol/min, the Vmax/Km (pmol min^-1 mM^-1) (AARASAA) was 1.2 and the 32P incorporated (EKRASAA) was 30.2 pmol/unit. For the same substance, the 32P incorporated, % (AKRASAA = 100) (EKRASAA) was 113%, the Km (EKRASAA) was 890 µM and the “Km relative to AKRASAA” value (EKRASAA) was “the Km was increased by 2-fold when glutamate was in the -4 position”. For the same substance, the Vmax (EKRASAA) was 2.48 pmol/min, the “Vmax relative to AKRASAA” value (EKRASAA) was >2-fold increase in the Vmax when glutamate was in the -4 or +1 position and the Vmax/Km (pmol min^-1 mM^-1) (EKRASAA) was 2.8. For the same substance, the “Vmax/Km relative to AKRASAA” value (EKRASAA) was 1.3-fold with glutamate in the -4 position, the Km (AKRASGA) was 2090 µM and the “Km relative to AKRASAA” value (AKRASGA) was “increased the Km by 4-fold and the Vmax by 3-fold”. The Vmax (AKRASGA) was 3.49 pmol/min, the “Vmax relative to AKRASAA” value (AKRASGA) was “increased the Km by 4-fold and the Vmax by 3-fold” and the Vmax/Km (pmol min^-1 mM^-1) (AKRASGA) was 1.7. It also gave a 32P incorporated (AKRASEA) of 18.3 pmol/unit, a 32P incorporated, % (AKRASAA = 100) (AKRASEA) of 68% and a Km (AKRASEA) of 1420 µM. For the same substance, the “Km relative to AKRASAA” value (AKRASEA) was “Glutamate in the -1 or +1 position increased the Km by ˜3-fold”, the Vmax (AKRASEA) was 2.22 pmol/min and the “Vmax relative to AKRASAA” value (AKRASEA) was >2-fold increase in the Vmax when glutamate was in the -4 or +1 position. For the same substance, the Vmax/Km (pmol min^-1 mM^-1) (AKRASEA) was 1.6 and the “Vmax/Km relative to AKRASAA” value (AKRASEA) was 0.7-fold when glutamate was in the +1 position of AKRASEA.
